Assay [1] deals with T1, PDZ domain of GIPC/synectin (Homo sapiens, UniProt O14908).
T1 construct: dsDNA encoding the PDZ domain of GIPC/synectin was double-digested with EcoRI and HindIII; made in house; host or cells: T7 phage grown in E. coli BLT5403
T1 sequence (O14908 133-213 limits assumed): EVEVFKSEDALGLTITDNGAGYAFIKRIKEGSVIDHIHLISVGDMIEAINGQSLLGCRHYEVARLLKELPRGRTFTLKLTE
Nature of the assay: Phage ELISA / phage binding assay with N-terminal biotinylated peptides. The settings on record: GIPC-PDZ T7 phage. The method, then:
dsDNA encoding the PDZ domain of GIPC/synectin was double-digested with EcoRI and HindIII, and the DNA (0.8 μL of a 45 nM (7.7 ng/μL) solution) was used in the ligation reaction with the T7 Select 10-3 vector arms (Novagen, 0.5 μL), along with 10× ligase buffer (0.25 μL); ATP (10 mM, 0.25 μL, final concentration 1 mM); DTT (100 mM, 0.25 μL); and T4 DNA ligase (0.5 μL, 1 unit/μL). The sample was incubated at 16° C. for 16 h. The T7 phage packaging reaction was performed by adding packaging extract (Novagen, 12.5 μL, or half the manufacturer's recommended amount) to the ligation reaction sample (2.5 μL) and allowing it to incubate for 2 h at room temperature. The reaction was stopped by the addition of a sterile LB medium (135 μL). A plaque assay was performed to determine the number of recombinant phage generated. E. coli BTL5403 was grown at 37° C. with shaking in LB/Amp50 medium (10 mL) until OD˜1.0 was reached. Top agarose (10 mL) was melted and equilibrated to this temperature. A series of dilutions was prepared prior to plating the phage. The first dilution was generated by adding packaged phage (10 μL) to LB/Amp50 (990 μL) for a total of 100-fold dilution (10^2). […] Plaques generated were counted to determine the titer and the number of recombinants generated. […]
For orientation: ELISA stands for enzyme-linked immunosorbent assay.

The test system of assay [2] is EGFR. Nature of the assay: EGFR expression after integrin-tail peptide in AsPC1 cells. In kind it is cell-based, human. The following applies: AsPC1 pancreatic adenocarcinoma cells. From the text:
In addition, with its PDZ domain, GIPC is associated with a vast list of transmembrane receptors, including integrin α6 and α 5 that are expressed in several pancreatic cancer cell lines. […] EGFR is a receptor tyrosine kinase highly expressed in pancreatic cancer cells and is a prognostic factor for overall survival. […] A peptide designed to disrupt the interaction between the PDZ domain and the cytoplasmic tail of integrin α 5 and α 6 (KERLTSDA, SEQ ID NO. 8) was utilized.

Ends that are not written are not given here. * marks the point of attachment. Biotin = O=C1N[C@H]2[C@H](CS[C@H]2CCCCC(=O)*)N1

Take KKETEV (Biotin-KKETEV): the “binding to the PDZ domain of GIPC/synectin” value in assay [1] was “not recognized”.

On to KERLTSDA [K-E-R-L-T-S-D-A], for which, in assay [2], the EGFR expression result was “down regulation of EGFR”.

As to KKETAV, the “binding to the PDZ domain of GIPC/synectin” value in assay [1] is “not recognized”.
